Reference: PMC8158011 (Proceedings of the National Academy of Sciences of the …, 2021)

Target: T1, FGFR4-Ecto-Fc (ectodomain of human FGFR4 fused to the Fc region of human IgG1) (human, UniProt P22455 22-369)
T1 sequence (looked up): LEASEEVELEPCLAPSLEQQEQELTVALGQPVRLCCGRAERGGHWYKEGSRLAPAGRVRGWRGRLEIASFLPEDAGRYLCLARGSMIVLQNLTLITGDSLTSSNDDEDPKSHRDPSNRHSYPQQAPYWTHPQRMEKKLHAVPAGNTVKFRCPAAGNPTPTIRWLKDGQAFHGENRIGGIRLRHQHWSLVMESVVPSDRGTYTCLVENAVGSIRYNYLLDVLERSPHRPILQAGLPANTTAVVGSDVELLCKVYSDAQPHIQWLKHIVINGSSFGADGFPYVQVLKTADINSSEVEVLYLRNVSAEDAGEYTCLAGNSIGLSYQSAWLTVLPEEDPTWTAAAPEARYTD
Assay: pull-down

binding result: binds
B1: purified recombinant human FAM3B-His protein (ligand, UniProt P58499 30-235, looked up)
chain: ELIPDAPLSSAAYSIRSIGERPVLKAPVPKRQKCDHWTPCPSDTYAYRLLSGGGRSKYAKICFEDNLLMGEQLGNVARGINIAIVNYVTGNVTATRCFDMYEGDNSGPMTKFIQSAAPKSLLFMVTYDDGSTRLNNDAKNAIEALGSKEIRNMKFRSSWVFIAAKGLELPSEIQREKINHSDAKNNRYSGWPAEIQIEGCIPKERS
